Target: recombinant mouse artemin protein (Ala112-Gly224 fragment) (Mus musculus, UniProt Q9Z0L2)
Assay: SPR

recombinant mouse artemin protein (Ala112-Gly224 fragment), sequence (Q9Z0L2 112-224): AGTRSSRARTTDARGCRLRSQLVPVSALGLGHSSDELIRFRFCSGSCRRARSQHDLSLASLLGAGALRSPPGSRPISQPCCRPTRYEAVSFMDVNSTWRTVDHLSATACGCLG

Kd [nM] | koff [s⁻¹] | kon [M⁻¹ s⁻¹] | Binder
178 | 0.0088 | 49000 | LU5 llama-VHH nanobody (naive) (VHH) VHH: QVQLVESGGGLVQAGASLRLSCAASGGTLVNSSMGWFRQAPGKERDFVATINWRGDTTWYGESVKGRFSISRDNAKNTVYLQMNSLNPEDTAVYYCAVYRTRYYTGRRMMSPDEYDVWGQGTQVTVSS
102 | 0.004 | 39000 | LM52 llama-VHH nanobody (mutated) (VHH) VHH: QVQLVESGGGLVQAGASLRLSCAASGGTLVNSSMGWFRQAPGKERDFVATINWRGDTTWYGESVKGRFSISRDNTKNMVYLQMNSLKPEDTAVYYCAVYRTRYYTGRRMMSPDEYDVWGQGTQVTVSS
456 | 0.023 | 50000 | LU68 llama-VHH nanobody (naive) (VHH) VHH: QVQLVESGGGLVQAGGSLRLSCAASGRTLSRYAVGWFRQAPGKEREFVAVVHWNGVSTYYAEPVKGRFTISRDNAKNTVYLQMNSLKPDDTAVYYCAAATTSYVDIYTTDYDYWGQGTQVTVSS
111 | 0.0052 | 46000 | LM41 llama-VHH nanobody (mutated) (VHH) VHH: QVQLVESGGGLVQAGGSLRLSCAASGRTLSRYAVGWFRQAPGKEREFVAVVHWNGVSTYHAEPVKGRFTISRDNAKNTVYLQMNSLKPDDTAVYYCAAATTSYVDIYTTDYDYWGQGTQVTVSS

Target: human fatty acid amide hydrolase (FAAH), amino acids 30-579, untagged (Homo sapiens, UniProt O00519)
Assay: SPR

human fatty acid amide hydrolase (FAAH), amino acids 30-579, untagged, sequence (O00519 30-579): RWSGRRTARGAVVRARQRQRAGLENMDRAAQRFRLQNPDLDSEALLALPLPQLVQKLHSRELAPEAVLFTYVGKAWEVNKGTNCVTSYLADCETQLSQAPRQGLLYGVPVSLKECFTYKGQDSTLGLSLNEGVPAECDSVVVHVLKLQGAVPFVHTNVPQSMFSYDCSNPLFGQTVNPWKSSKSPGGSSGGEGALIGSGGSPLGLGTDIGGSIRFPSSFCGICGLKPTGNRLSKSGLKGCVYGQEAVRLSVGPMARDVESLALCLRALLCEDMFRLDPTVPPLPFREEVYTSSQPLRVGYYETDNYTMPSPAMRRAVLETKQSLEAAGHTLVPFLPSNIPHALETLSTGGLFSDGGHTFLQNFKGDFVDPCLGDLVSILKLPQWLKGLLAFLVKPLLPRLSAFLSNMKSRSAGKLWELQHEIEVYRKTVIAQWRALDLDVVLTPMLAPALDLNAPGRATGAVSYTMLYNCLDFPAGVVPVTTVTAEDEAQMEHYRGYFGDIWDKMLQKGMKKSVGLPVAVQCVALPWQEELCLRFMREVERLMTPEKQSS

Kd [nM] | koff [s⁻¹] | kon [M⁻¹ s⁻¹] | Binder
1.26 | 0.000214 | 169000 | F9 llama-VHH nanobody (affinity maturated) (VHH) VHH: QVQLVESGGGLAQAGGSLRLSCAASGRTFSDNTMAWHRQGPGKQRGLVAFITTGGRTVYTDSVKGRFIISRDNAKNTGYLQMNSLKPEDTAVYYCFVAGNWGQGTQVTVSS
0.65 | 0.000107 | 165000 | OD1 llama-VHH nanobody (affinity maturated) (VHH) VHH: QVQLVESGGGLVQAGGSLRLSCAASGRTFSDNTMAWHRQGPGKQRGLVAFITTGGRTVYTDSVKGRFIISRDNAKNTGFLQMNSLKPEDTAVYYCYVAGNWGQGTQVTVSS
1.56 | 5.7e-05 | 36400 | A3 llama-VHH nanobody (original) (VHH) VHH: QVQLVESGGGLVQAGGSLRLSCAASGRTFSDNTMAWHRQGPGKQRGLVAFITTGGRTVYTDSVKGRFIISRDNAKNTGYLQMNSLKPEDTAVYYCYVAGNWGQGTQVTVSS

Source: PMC9723645 (Nucleic Acids Research, 2022)
